As usually defined, the EC50 is the midpoint of the concentration-response curve. A higher EC50 goes with lower potency in that assay.

Sequences and labels used below:
B1: MC1 (masked mAb1 comprising MM1 and CL1) (antibody, human IgG2, kappa)
heavy: QVQLVQSGAEVKKPGASVKVSCKASGYTFTGKYMHWVRQAPGQGLEWMGWINPDSGGTNYAQKFQGRVTMTRDTSIATAYMELNRLRSDDTAVYYCARDQPLGYCTNGVCSYFDYWGQGTLVTVSSASTKGPSVFPLAPCSRSTSESTAALGCLVKDYFPEPVTVSWNSGALTSGVHTFPAVLQSSGLYSLSSVVTVPSSNFGTQTYTCNVDHKPSNTKVDKTVERKCCVECPPCPAPPVAGPSVFLFPPKPKDTLMISRTPEVTCVVVDVSHEDPEVQFNWYVDGVEVHNAKTKPREEQFNSTFRVVSVLTVVHQDWLNGKEYKCKVSNKGLPAPIEKTISKTKGQPREPQVYTLPPSREEMTKNQVSLTCLVKGFYPSDIAVEWESNGQPENNYKTTPPMLDSDGSFFLYSKLTVDKSRWQQGNVFSCSVMHEALHNHYTQKSLSLSPGK
light: EDEPGIRCYYNDDTCQYGGGPLGLAGSGGSDIQMTQSPSSVSASVGDRVTITCRASQGIYSWLAWYQQKPGKAPNLLIYTASTLQSGVPSRFSGSGSGTDFTLTISSLQPEDFATYYCQQANIFPLTFGGGTKVEIKRTVAAPSVFIFPPSDEQLKSGTASVVCLLNNFYPREAKVQWKVDNALQSGNSQESVTEQDSKDSTYSLSSTLTLSKADYEKHKVYACEVTHQGLSSPVTKSFNRGEC
notes: Conditionally-active (masked) antibody
B2: MMP9-activated (MC1/MC2) (antibody, not shown: small tags and cut ends)
heavy: B1 heavy
light: DIQMTQSPSSVSASVGDRVTITCRASQGIYSWLAWYQQKPGKAPNLLIYTASTLQSGVPSRFSGSGSGTDFTLTISSLQPEDFATYYCQQANIFPLTFGGGTKVEIKRTVAAPSVFIFPPSDEQLKSGTASVVCLLNNFYPREAKVQWKVDNALQSGNSQESVTEQDSKDSTYSLSSTLTLSKADYEKHKVYACEVTHQGLSSPVTKSFNRGEC
B3: MC4 (masked mAb1 comprising MM2 and CL2) (antibody, human IgG2, kappa)
heavy: B1 heavy
light: EVGSYYVCPVRFQYFCEESGRSAGGGGPLGLAGSGGSDIQMTQSPSSVSASVGDRVTITCRASQGIYSWLAWYQQKPGKAPNLLIYTASTLQSGVPSRFSGSGSGTDFTLTISSLQPEDFATYYCQQANIFPLTFGGGTKVEIKRTVAAPSVFIFPPSDEQLKSGTASVVCLLNNFYPREAKVQWKVDNALQSGNSQESVTEQDSKDSTYSLSSTLTLSKADYEKHKVYACEVTHQGLSSPVTKSFNRGEC
notes: as for B1
B4: MC2 (masked mAb1 comprising MM2 and CL1) (antibody, human IgG2, kappa)
heavy: B1 heavy
light: EVGSYYVCPVRFQYFCEEGGGPLGLAGSGGSDIQMTQSPSSVSASVGDRVTITCRASQGIYSWLAWYQQKPGKAPNLLIYTASTLQSGVPSRFSGSGSGTDFTLTISSLQPEDFATYYCQQANIFPLTFGGGTKVEIKRTVAAPSVFIFPPSDEQLKSGTASVVCLLNNFYPREAKVQWKVDNALQSGNSQESVTEQDSKDSTYSLSSTLTLSKADYEKHKVYACEVTHQGLSSPVTKSFNRGEC
notes: as for B1
B5: uPA-activated (MC3/MC4) (antibody, not shown: small tags and cut ends)
heavy: B1 heavy
light: B2 light
notes: Masked compound with CL2 (MC3 or MC4, printed 'MC3/MC4') after cleavage of the masking moiety by recombinant human uPA
B6: MC3 (masked mAb1 comprising MM1 and CL2) (antibody, human IgG2, kappa)
heavy: B1 heavy
light: EDEPGIRCYYNDDTCQYSGRSAGGGGPLGLAGSGGSDIQMTQSPSSVSASVGDRVTITCRASQGIYSWLAWYQQKPGKAPNLLIYTASTLQSGVPSRFSGSGSGTDFTLTISSLQPEDFATYYCQQANIFPLTFGGGTKVEIKRTVAAPSVFIFPPSDEQLKSGTASVVCLLNNFYPREAKVQWKVDNALQSGNSQESVTEQDSKDSTYSLSSTLTLSKADYEKHKVYACEVTHQGLSSPVTKSFNRGEC
notes: as for B1

In the first assay the target is T1, human CD40 on cells (human, UniProt P25942 21-277).
T1 construct: also called hCD40
T1 sequence (P25942 21-277 limits assumed): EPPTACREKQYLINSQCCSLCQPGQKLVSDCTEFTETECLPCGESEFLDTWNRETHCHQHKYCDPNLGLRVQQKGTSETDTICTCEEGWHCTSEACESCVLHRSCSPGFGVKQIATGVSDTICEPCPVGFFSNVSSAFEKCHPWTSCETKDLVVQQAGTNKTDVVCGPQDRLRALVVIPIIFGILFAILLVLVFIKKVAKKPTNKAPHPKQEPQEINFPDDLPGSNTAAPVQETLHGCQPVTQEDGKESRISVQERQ
The assay is described as follows: flow cytometry on U-2 OS/NFκB cells; EC50 relative to mAb1. As for the experimental part:
(§1) Briefly, cultured U-2 OS/NFκB cells were seeded in 96-well plates at 1.0×10⁵ cells/well and incubated with serially-diluted test antibodies for 60 minutes at 4° C. in 2% FBS/dPBS buffer. The cells were then washed twice with dPBS and further incubated with secondary allophycocyanin (APC)-conjugated AffiniPure F(ab′)₂ fragment donkey anti-human IgG (H+L) antibody (Jackson ImmunoResearch, Ref. 709-136-149) (1:500) for 30 minutes at 4° C. Finally, the cells were washed twice with dPBS and suspended in FACS buffer for flow cytometry analysis. MFI values vs concentrations were analyzed by FlowJo and data were further fitted with four-parameter non-linear regression to get EC₅₀ values by GraphPad Prism software.
Molecule B1 returned a Relative masking efficacy of 220 fold.

B2 returned a Relative masking efficacy of 1.3 fold.

As for B3, the Relative masking efficacy stood at 118 fold.

As to B4, the Relative masking efficacy came out at 211 fold.

Take B5: the Relative masking efficacy turned out to be 1.7 fold.

As for B6, the Relative masking efficacy was 131 fold.

The next assay has as its target T1, human CD40 on cells. The assay is described as follows: flow cytometry on U-2 OS/NFκB cells. How it is done: as §1
As for B1, the EC50 worked out at 330 nM.

In turn, B2 returned an EC50 of 1.94 nM.

Take B3: the EC50 is 176 nM.

On to B4, for which the 50% effective concentration (EC50) turned out to be 317 nM.

B5: the midpoint of the response, the EC50, lay at 2.52 nM.

Consider B6, for which the 50% effective concentration (EC50) was found to be 197 nM.

The target in a further assay is T1, human CD40 on cells. The assay is described as follows: cell-based or functional assay.
For B1, the “EC50, CD83 expression, MoDC maturation assay” value worked out at 56.5 nM and the “EC50, IL-8 release, MoDC maturation assay” value (shortened to “EC50, IL-8 release”) came to 19.5 nM.

B3: the “EC50, CD83 expression, MoDC maturation assay” value was 17.2 nM and the “EC50, IL-8 release” value was 12.2 nM.

B4: the “EC50, CD83 expression, MoDC maturation assay” value amounted to 33.1 nM and the “EC50, IL-8 release” value was found to be 15.1 nM.

With B6, the “EC50, CD83 expression, MoDC maturation assay” value turned out to be 27.4 nM and the “EC50, IL-8 release” value amounted to 13.3 nM.

A further assay concerns the target T1, human CD40 on cells. The assay is described as follows: cell-based or functional assay. The source holds these as a separate data set.
On to B1, for which the “EC50, CD83 expression, B-cells of hCD40 KI mice” value (from here on “EC50, CD83 expression, B-cells”) worked out at 6.7 nM; the “EC50, CD86 expression, B-cells of hCD40 KI mice” value (shortened to “EC50, CD86 expression, B-cells”) came to 3.57 nM; the “Relative masking efficacy, CD83 expression, B-cells of hCD40 KI mice” value came to 131 fold; the “Relative masking efficacy, CD86 expression, B-cells of hCD40 KI mice” value was 115 fold.

As to B3, the “EC50, CD83 expression, B-cells” value was 1.24 nM; the “EC50, CD86 expression, B-cells” value was determined as 1.05 nM; the “Relative masking efficacy, CD83 expression, B-cells of hCD40 KI mice” value is 24.3 fold; the “Relative masking efficacy, CD86 expression, B-cells of hCD40 KI mice” value came out at 33.8 fold.

For the molecule B4, the “EC50, CD83 expression, B-cells” value was 2.31 nM; the “EC50, CD86 expression, B-cells” value is 1.46 nM; the “Relative masking efficacy, CD83 expression, B-cells of hCD40 KI mice” value was found to be 45.2 fold; the “Relative masking efficacy, CD86 expression, B-cells of hCD40 KI mice” value is 47.2 fold.

In the case of B6, the “EC50, CD83 expression, B-cells” value was found to be 2.84 nM; the “EC50, CD86 expression, B-cells” value was found to be 2.01 nM; the “Relative masking efficacy, CD83 expression, B-cells of hCD40 KI mice” value is 55.7 fold; the “Relative masking efficacy, CD86 expression, B-cells of hCD40 KI mice” value stood at 64.9 fold.

Another assay concerns the target T1, human CD40 on cells. The assay is described as follows: flow cytometry on Raji cells. How it is done:
as §1, with “Raji” for “cultured U-2 OS/NFκB”
Molecule B1 registered an EC50 of 476 nM.

B2 displayed an EC50 of 1.46 nM. Compared with the last molecule, the EC50 is about 330-fold lower.

B3 came in with an EC50 of 143 nM.

For B4, the EC50 is 488 nM.

B5 registered an EC50 of 2.01 nM. This EC50 lies about 240-fold lower than the previous one.

As to B6, the 50% effective concentration (EC50) turned out to be 388 nM. This EC50 lies about 190-fold higher than the previous one.

The next assay deals with T1, human CD40 on cells. The assay is described as follows: cell-based or functional assay. The source holds these as a separate data set.
For B1, the “EC50, luciferase reporter assay in U-2 OS/NFκB cells” value (“EC50, luciferase reporter assay” below) came out at 179 nM and the “Relative masking efficacy, luciferase reporter assay in U-2 OS/NFκB cells” value (shortened to “Relative masking efficacy … in U-2 OS/NFκB cells”) is 753 fold.

As for B2, the “EC50, luciferase reporter assay” value stood at 0.261 nM and the “Relative masking efficacy … in U-2 OS/NFκB cells” value is 1.1 fold.

Take B3: the “EC50, luciferase reporter assay” value was 45.8 nM and the “Relative masking efficacy … in U-2 OS/NFκB cells” value was found to be 193 fold.

Consider B4, for which the “EC50, luciferase reporter assay” value worked out at 113 nM and the “Relative masking efficacy … in U-2 OS/NFκB cells” value came to 477 fold.

For the molecule B5, the “EC50, luciferase reporter assay” value turned out to be 0.362 nM and the “Relative masking efficacy … in U-2 OS/NFκB cells” value was 1.5 fold.

On to B6, for which the “EC50, luciferase reporter assay” value was 108 nM and the “Relative masking efficacy … in U-2 OS/NFκB cells” value was 457 fold.

A further assay deals with T1, human CD40 on cells. The assay is described as follows: cell-based or functional assay. The source holds these as a separate data set.
On to B1, for which the “EC50, CD86 expression, primary human B-cell activation assay” value turned out to be 40.3 nM and the “Relative masking efficacy, CD86 expression, primary human B-cell activation assay” value stood at 231 fold.

B2: the “EC50, CD86 expression, primary human B-cell activation assay” value was found to be 0.114 nM and the “Relative masking efficacy, CD86 expression, primary human B-cell activation assay” value came out at 0.65 fold.

As for B3, the “EC50, CD86 expression, primary human B-cell activation assay” value came to 14.7 nM and the “Relative masking efficacy, CD86 expression, primary human B-cell activation assay” value worked out at 84 fold.

As for B4, the “EC50, CD86 expression, primary human B-cell activation assay” value is 28.5 nM and the “Relative masking efficacy, CD86 expression, primary human B-cell activation assay” value amounted to 176 fold.

In the case of B5, the “EC50, CD86 expression, primary human B-cell activation assay” value is 0.134 nM and the “Relative masking efficacy, CD86 expression, primary human B-cell activation assay” value turned out to be 0.77 fold.

As to B6, the “EC50, CD86 expression, primary human B-cell activation assay” value worked out at 27.9 nM and the “Relative masking efficacy, CD86 expression, primary human B-cell activation assay” value came out at 158 fold.

In the next assay the target is T1, human CD40 on cells. The assay is described as follows: flow cytometry on Raji cells; EC50 relative to mAb1. As for the experimental part:
as §1, with “Raji” for “cultured U-2 OS/NFκB”
In turn, B1 returned a Relative masking efficacy of 355 fold.

In turn, B2 displayed a Relative masking efficacy of 1.1 fold.

Consider B3, for which the Relative masking efficacy turned out to be 107 fold.

In the case of B4, the Relative masking efficacy is 364 fold.

Take B5: the Relative masking efficacy worked out at 1.5 fold.

With B6, the Relative masking efficacy turned out to be 289 fold.
